Test results from the supplement of paper PMC7125110.
± gives the standard error. Variants at the floor of the assay were thinned out.

B1: glmS ribozyme (parent)
chain: AUAAAAGCGCCAGAACUACAGAAAUGUAGUUGACGAGGAGGAGGUUUAUCGAAUUUUCGGCGGAUGCCUCCAAA

Tests used:
Details in all cases: with glucosamine-6-phosphate
[1] = variants of: B1; assay: self-cleavage kobs at 160 uM GlcN6P; higher = faster cleavage; RNA array
In short: (§1)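 Glucosamine-6-phosphate (40 μM to 10 mM) in HEPES/KCl/Mg(OAc)2 buffer was flowed over sequenced MiSeq chips, and tiles were imaged over ~14 h. Barcoded ribozyme variants there had been transcribed in situ by E. coli RNA polymerase and were tracked through a hybridised Cy3 probe at 37 °C. One- or two-exponential decay fits to per-tile medians, normalised to baseline and to non-cleaving reference variants, gave kobs. kcat and KM came from weighted Michaelis–Menten fits across concentrations.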

[2] = variants of: B1; assay: self-cleavage kobs at 2500 uM GlcN6P; higher = faster cleavage; RNA array
In short: as §1

[3] = variants of: B1; assay: self-cleavage kobs at 640 uM GlcN6P; higher = faster cleavage; RNA array
In short: as §1

[4] = variants of: B1; assay: self-cleavage kobs at 10000 uM GlcN6P; higher = faster cleavage; RNA array
In short: as §1

Variant	self-cleavage kobs at 160 uM GlcN6P [1]	self-cleavage kobs at 2500 uM GlcN6P [2]	self-cleavage kobs at 640 uM GlcN6P [3]	self-cleavage kobs at 10000 uM GlcN6P [4]
G9C G38C G63U	< 1e-05 s⁻¹	< 1e-05 s⁻¹	–	–
U31A A33G	< 1e-05 s⁻¹	–	< 1e-05 s⁻¹	< 1e-05 s⁻¹
A6G C8G U31A G32U	< 1e-05 s⁻¹	–	–	–
A6C C8U C10G A12U G38U	< 1e-05 s⁻¹	< 1e-05 s⁻¹	< 1e-05 s⁻¹	–
A6U A14C G51A	< 1e-05 s⁻¹	–	< 1e-05 s⁻¹	–
G51C G60A U69A	< 1e-05 s⁻¹	–	–	–
C10G A48G A64U U65A	< 1e-05 s⁻¹	< 1e-05 s⁻¹	< 1e-05 s⁻¹	–
U47G U54C	0.000851 ± 0.00032 s⁻¹	0.00468 ± 0.00094 s⁻¹	0.0026 ± 0.00053 s⁻¹	0.0139 ± 0.0032 s⁻¹
C16A G35A G43A	< 1e-05 s⁻¹	< 1e-05 s⁻¹	< 1e-05 s⁻¹	–
C11A C58U C68A	7.67e-05 ± 3.2e-05 s⁻¹	7.25e-05 ± 2.7e-05 s⁻¹	–	5.61e-05 ± 1.5e-05 s⁻¹
G9A G29A A42G A48C U65A	< 1e-05 s⁻¹	< 1e-05 s⁻¹	< 1e-05 s⁻¹	–
G29A U30G G35A G38U U46A C71G	< 1e-05 s⁻¹	–	–	–
G7U A52C	< 1e-05 s⁻¹	–	< 1e-05 s⁻¹	< 1e-05 s⁻¹
A12C A64C C68A C71A	< 1e-05 s⁻¹	< 1e-05 s⁻¹	< 1e-05 s⁻¹	–
A6U U65G C70U	< 1e-05 s⁻¹	–	< 1e-05 s⁻¹	–
A15G G40A A53G	0.000772 ± 0.00017 s⁻¹	0.00292 ± 0.00062 s⁻¹	–	–
G9A A12U A33C G62U	< 1e-05 s⁻¹	–	–	–
G7U G41U A53G	< 1e-05 s⁻¹	< 1e-05 s⁻¹	–	–
G40A C67G	< 1e-05 s⁻¹	–	< 1e-05 s⁻¹	–
A14C A15C A48U	< 1e-05 s⁻¹	–	–	–
A36U G63U	< 1e-05 s⁻¹	< 1e-05 s⁻¹	< 1e-05 s⁻¹	–
C8G C11G C16G C34A	< 1e-05 s⁻¹	< 1e-05 s⁻¹	–	–
G13C C68U C71U	< 1e-05 s⁻¹	–	< 1e-05 s⁻¹	–
A1C U30G	0.000834 ± 0.00021 s⁻¹	0.00723 ± 0.0018 s⁻¹	0.00402 ± 0.0016 s⁻¹	–
U30G G51U	< 1e-05 s⁻¹	–	–	< 1e-05 s⁻¹
C67G C68A	7.05e-05 ± 2.1e-05 s⁻¹	2.05e-05 ± 7.5e-06 s⁻¹	3.85e-05 ± 1.1e-05 s⁻¹	–
G9C G37A	< 1e-05 s⁻¹	< 1e-05 s⁻¹	< 1e-05 s⁻¹	–
